From US20230372551A1, “RADIOLABELED LIGANDS FOR TARGETED PET/SPECT IMAGING AND METHODS OF THEIR USE” (priority 2020, published 2023)
Non-standard residues stand in square brackets, D forms with d. Residues, ends and D or L forms follow the SMILES beside them. *: point of attachment. X1 = CC(=O)N(O)CCCCCNC(=O)CCC(=O)N(O)CCCCCNC(=O)CCC(=O)N(O)CCCCCNC(=O)CCN1C(=O)CC(*)C1=O

Assays:
in vivo [1] = experiment: in vivo; design: species or system BALB/c mice; conditions: BALB/c, mouse, total radioactivity
Description: (§1) In vivo animal PET imaging and biodistribution. All injections were less than 200 μL with <10% EtOH in sterile PBS. PET images were obtained with the mice under anesthesia in an Inveon PET-CT at 4-144 h p.i. All images were analyzed using 3D Slicer (www.slicer.org). Dissections for ex vivo biodistribution were performed on mice after C02 asphyxiation or cervical dislocation while anesthetized at reported time points. Weight of the syringe prior to injection and after injection was used to determine the mass of injectate. Activity of the syringe prior to injection and after injection was used to determine the percent of injectate administered. The mass injected was corrected by the percent of radioactivity injected. Four to five aliquots (10 μL) were weighed and counted as internal standards for each study. All of the collected organs were counted using an automatic gamma counter (Wizard 3″, PerkinElmer, Waltham, MA). The total injected dose was found as the mass injected dose×fraction radioactivity injected×internal standard average counts/g. The percent injected dose (% ID) was determined as the counts for the tissue×100/total injected dose. The % ID/g was calculated as the % ID/tissue weight. The average and standard deviation of the % ID and % ID/g was determined using normal methods (n-1) for each set of mice.
(§2) 4T1 orthotopic BALB c mouse model. Animal studies were conducted according to MSKCC IACUC-approved animal protocol.
(§3) The 4T1 cells derived from spontaneous breast tumor in a BALB/c mouse (Karmanos Cancer Institute, Detroit, MI) were cultured in Dulbecco's modified Eagle's high glucose media with 10% FCS, 2 mM L-glutamine, penicillin, and streptomycin. The 4T1 cells derived from ATCC (Manassas, VA) were cultured in RPMI-1640 medium modified to contain 2 mM L-glutamine, 10 mM HEPES, 1 mM sodium pyruvate, 4.5 g/L glucose, 1.5 g/L NaHCO3, penicillin, and streptomycin.
(§4) The 4T1 cells described above were removed from the flasks containing the culture, concentrated, and resuspended in minimal media for cell counting. […]

4T1 tumors = experiment: in vivo; design: species or system BALB/c mice; conditions: mouse
Description: as §1, §2, §3, §4

in vivo [2] = conditions: male, athymic nude, mouse, 200 uCi (1.2 nmol), total radioactivity, ex vivo distribution
Description: All injections were less than 200 μL with <10% EtOH in sterile PBS. […] All images were analyzed using 3D Slicer (www.slicer.org). Dissections for ex vivo biodistribution were performed on mice after C02 asphyxiation or cervical dislocation while anesthetized at reported time points. Weight of the syringe prior to injection and after injection was used to determine the mass of injectate. Activity of the syringe prior to injection and after injection was used to determine the percent of injectate administered. The mass injected was corrected by the percent of radioactivity injected. Four to five aliquots (10 μL) were weighed and counted as internal standards for each study. All of the collected organs were counted using an automatic gamma counter (Wizard 3″, PerkinElmer, Waltham, MA). […] The percent injected dose (% ID) was determined as the counts for the tissue×100/total injected dose. The % ID/g was calculated as the % ID/tissue weight. The average and standard deviation of the % ID and % ID/g was determined using normal methods (n-1) for each set of mice.
Tissue samples were collected for additional ex vivo biodistribution studies to confirm the PET data results.

CC(=O)N(O)CCCCCNC(=O)CCC(=O)N(O)CCCCCNC(=O)CCC(=O)N(O)CCCCCNC(=O)CCN1C(=O)CC(SC[C@@H](NC(=O)[C@@H](C)N)C(=O)N[C@H](CC(=O)O)C(=O)N[C@H](CC(=O)O)C(=O)N[C@H](CCC(N)=O)C(=O)N[C@H](CC(N)=O)C(=O)N2CCC[C@@H]2C(=O)N[C@H](Cc2c[nH]c3ccccc23)C(=O)N[C@H](CCCNC(=N)N)C(=O)N[C@H](C)C(=O)N[C@H](Cc2ccc(O)cc2)C(=O)N[C@H](CC(C)C)C(=O)N[C@H](CC(=O)O)C(=O)N[C@H](CC(C)C)C(=O)N[C@H](CC(C)C)C(=O)N[C@H](Cc2ccccc2)C(=O)N2CCC[C@@H]2C(=O)N[C@@H](C(=O)N[C@H](CC(=O)O)C(=O)N[C@@H](C(=O)N[C@H](CC(C)C)C(=O)N[C@H](CC(C)C)C(=O)N[C@H](CC(C)C)C(=O)N[C@H](CC(=O)O)C(=O)N[C@H](CC(C)C)C(=O)N[C@H](CC(C)C)C(=O)N[C@H](Cc2c[nH]c3ccccc23)C(=O)O)[C@H](C)O)[C@H](C)O)C1=O (stereo partly drawn) [[^89Zr]Zr-DFO-cys-Var3pHLIP, metal not drawn] (H-[dA][dC](X1)[dD][dD][dQ][dN][dP][dW][dR][dA][dY][dL][dD][dL][dL][dF][dP][dT][dD][dT][dL][dL][dL][dD][dL][dL][dW]-OH; N-terminus and C-terminus assumed)
tissue uptake (in vivo [1]): ~15 %ID/g | time until which tumor uptake continues to increase (4T1 tumors): approximately 48 h | circulatory half-life (4T1 tumors; 5 ug): long circulatory half-life | tissue uptake at 48 h (in vivo [2]; Femur): 1.4 ± 0.1 %ID/g | tissue uptake at 48 h (in vivo [2]; Muscle): 0.6 ± 0.7 %ID/g
